What was measured:
human BACE1 ectodomain [1] = biological target: T1, human BACE1 ectodomain (human, UniProt P56817 22-457); assay: SPR (Biacore), pH 7.0
T1 construct: extracellular domain; also called the ectodomain of human BACE1

mouse BACE1 [2] = biological target: T2, mouse BACE1 (mouse, UniProt P56818 46-457, limits assumed); assay: SPR (Biacore), pH 7.0
mouse BACE1 [3] = biological target: T2, mouse BACE1; assay: SPR (Biacore), pH 4.5
human BACE1 ectodomain [4] = biological target: T1, human BACE1 ectodomain; assay: SPR (Biacore), pH 4.5
[5] = biological target: recombinant BACE1 of the cell-free enzymatic assays (FRET assay, MBP-ELISA) (human, UniProt P56817 46-460, limits assumed); assay: cell-based or functional assay
recombinant BACE1 of the cell-free enzymatic assays (FRET assay, MBP-ELISA), sequence (P56817 46-460 limits assumed): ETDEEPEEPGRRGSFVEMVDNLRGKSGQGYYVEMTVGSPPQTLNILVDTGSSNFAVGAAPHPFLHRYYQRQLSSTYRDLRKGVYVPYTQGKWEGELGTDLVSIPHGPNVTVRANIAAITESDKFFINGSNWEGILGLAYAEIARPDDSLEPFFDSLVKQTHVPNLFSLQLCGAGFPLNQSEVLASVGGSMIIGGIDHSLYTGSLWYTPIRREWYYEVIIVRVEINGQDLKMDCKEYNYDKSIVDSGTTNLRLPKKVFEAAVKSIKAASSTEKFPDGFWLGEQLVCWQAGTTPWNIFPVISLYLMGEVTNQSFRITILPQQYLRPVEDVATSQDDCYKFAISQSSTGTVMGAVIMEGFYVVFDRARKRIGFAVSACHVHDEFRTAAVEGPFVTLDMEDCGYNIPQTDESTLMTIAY

[6] = biological target: BACE1 of primary cultured mouse neurons (mouse, UniProt P56818 46-501); assay: cell-based or functional assay
BACE1 of primary cultured mouse neurons, sequence (P56818 46-501): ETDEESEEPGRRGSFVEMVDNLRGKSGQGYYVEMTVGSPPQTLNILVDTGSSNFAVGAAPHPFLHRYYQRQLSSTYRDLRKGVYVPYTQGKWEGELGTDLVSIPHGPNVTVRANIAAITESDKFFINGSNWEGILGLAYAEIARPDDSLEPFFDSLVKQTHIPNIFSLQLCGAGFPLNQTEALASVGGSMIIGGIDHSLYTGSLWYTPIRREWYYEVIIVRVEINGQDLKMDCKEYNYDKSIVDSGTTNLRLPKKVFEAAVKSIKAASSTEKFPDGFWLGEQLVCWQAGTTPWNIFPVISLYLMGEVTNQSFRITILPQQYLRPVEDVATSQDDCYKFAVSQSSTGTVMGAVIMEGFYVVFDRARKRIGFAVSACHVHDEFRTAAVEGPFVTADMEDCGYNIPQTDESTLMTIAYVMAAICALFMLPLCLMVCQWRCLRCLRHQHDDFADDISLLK

T2 sequence (P56818 46-457 limits assumed): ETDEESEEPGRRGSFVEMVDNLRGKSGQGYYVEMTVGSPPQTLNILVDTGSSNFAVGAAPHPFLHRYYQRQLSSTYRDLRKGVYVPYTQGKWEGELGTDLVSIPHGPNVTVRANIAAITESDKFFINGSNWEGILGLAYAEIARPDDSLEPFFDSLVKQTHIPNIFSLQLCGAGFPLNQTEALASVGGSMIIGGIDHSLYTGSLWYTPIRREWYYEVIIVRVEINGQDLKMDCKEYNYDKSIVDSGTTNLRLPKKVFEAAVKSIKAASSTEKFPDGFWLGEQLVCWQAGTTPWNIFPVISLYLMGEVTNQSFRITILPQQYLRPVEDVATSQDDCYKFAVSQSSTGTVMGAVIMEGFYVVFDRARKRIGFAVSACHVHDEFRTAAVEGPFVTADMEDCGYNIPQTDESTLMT
T1 sequence (P56817 22-457): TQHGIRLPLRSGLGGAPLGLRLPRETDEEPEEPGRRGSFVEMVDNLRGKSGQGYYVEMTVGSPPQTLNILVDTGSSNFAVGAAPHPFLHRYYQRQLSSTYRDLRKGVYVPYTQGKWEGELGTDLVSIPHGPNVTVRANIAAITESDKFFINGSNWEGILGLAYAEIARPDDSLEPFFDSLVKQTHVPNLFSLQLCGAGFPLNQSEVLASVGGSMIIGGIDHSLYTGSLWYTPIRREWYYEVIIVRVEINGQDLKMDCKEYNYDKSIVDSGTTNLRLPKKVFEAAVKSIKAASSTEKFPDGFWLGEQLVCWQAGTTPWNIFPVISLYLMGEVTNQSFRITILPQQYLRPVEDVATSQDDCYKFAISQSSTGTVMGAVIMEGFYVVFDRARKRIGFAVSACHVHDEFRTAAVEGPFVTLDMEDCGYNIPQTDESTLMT

B1: NANOBODY 10C4 (Nb_10C4) (VHH)
VHH: QVQLQESGGGSVQAGGFLRLSCAASGYTYSTCSMAWYRQAPGKERELVSSIRNDGSTAYADSVKGRFTISQDNAKNTVYLQMNSLKPEDTAMYYCNIRIGVGPGGTCSIYAPYWGEGTQVTVSS
notes: from the dromedary libraries; purified from pHEN6; not shown: C-terminal his6-tag (pHEN6)
For B1, the Kd (human BACE1 ectodomain [1]) was 74.7 nM, the koff (human BACE1 ectodomain [1]) was 0.00792 s⁻¹ and the kon (human BACE1 ectodomain [1]) was 106000 M⁻¹ s⁻¹. It also gave a Kd (mouse BACE1 [2]) of 41.9 nM, a koff (mouse BACE1 [2]) of 0.00797 s⁻¹ and a kon (mouse BACE1 [2]) of 190000 M⁻¹ s⁻¹. The Kd (mouse BACE1 [3]) was 10 nM, the koff (mouse BACE1 [3]) was 0.00988 s⁻¹ and the kon (mouse BACE1 [3]) was 984000 M⁻¹ s⁻¹. For the same binder, the Kd (human BACE1 ectodomain [4]) was 27.7 nM, the koff (human BACE1 ectodomain [4]) was 0.0125 s⁻¹ and the kon (human BACE1 ectodomain [4]) was 451000 M⁻¹ s⁻¹. For the same binder, the “IC50, FRET assay dose-response” value [5] was 150 nM.

B2: NANOBODY 4A2 (Nb_4A2) (VHH)
VHH: QVQLQESGGGLVQPGGSLRLSCAASGFTFETQYMTWVRQAPGKGPEYVSSINSGGTIKYYANSSVKGRFTISRDNAKNTLYLQMNNLRPEDTAIYYCQLGQWAGVGAASSRGQGTQVTVSS
notes: from the llama library; purified from pHEN6; not shown: C-terminal his6-tag (pHEN6)
For B2, the Kd (human BACE1 ectodomain [1]) was 48.2 nM, the koff (human BACE1 ectodomain [1]) was 0.0231 s⁻¹ and the kon (human BACE1 ectodomain [1]) was 479000 M⁻¹ s⁻¹. The Kd (mouse BACE1 [2]) was 35.2 nM, the koff (mouse BACE1 [2]) was 0.00581 s⁻¹ and the kon (mouse BACE1 [2]) was 165000 M⁻¹ s⁻¹. The Kd (mouse BACE1 [3]) was 8.61 nM, the koff (mouse BACE1 [3]) was 0.00216 s⁻¹ and the kon (mouse BACE1 [3]) was 251000 M⁻¹ s⁻¹. The Kd (human BACE1 ectodomain [4]) was 21.2 nM, the koff (human BACE1 ectodomain [4]) was 0.00841 s⁻¹ and the kon (human BACE1 ectodomain [4]) was 397000 M⁻¹ s⁻¹. The “IC50, FRET assay dose-response” value [5] was 1200 nM.

B3: NANOBODY B9 (Nb_B9) (VHH)
VHH: DVQLQESGGGSVQAGGSLRLSCAASEYTYGYCSMGWYRQAPGKERELVSTITSDGSTSYVDSVKGRFTISQDNAKNTVYLQMNSLKPEDTAKYYCYTKTCANKLGAKFISWGQGTQVTVSS
notes: dromedary VHH; his-tagged from E. coli; HA-tagged periplasmic extract in the ELISA screen; also called VHH B9; not shown: C-terminal his6-tag (pHEN6)
B3 was tested, and the Kd (human BACE1 ectodomain [1]) was 3.67 nM, the koff (human BACE1 ectodomain [1]) was 0.00098 s⁻¹ and the kon (human BACE1 ectodomain [1]) was 267000 M⁻¹ s⁻¹. It also gave a Kd (mouse BACE1 [2]) of 1.77 nM, a koff (mouse BACE1 [2]) of 0.00089 s⁻¹ and a kon (mouse BACE1 [2]) of 502000 M⁻¹ s⁻¹. For the same binder, the Kd (mouse BACE1 [3]) was 1.11 nM, the koff (mouse BACE1 [3]) was 0.00118 s⁻¹ and the kon (mouse BACE1 [3]) was 1.06e+06 M⁻¹ s⁻¹. It also gave a Kd (human BACE1 ectodomain [4]) of 1.96 nM, a koff (human BACE1 ectodomain [4]) of 0.0013 s⁻¹ and a kon (human BACE1 ectodomain [4]) of 662000 M⁻¹ s⁻¹. For the same binder, the “EC50, FRET assay dose-response” value [5] was 4.1 nM and the “IC50 (CTFβ level) in the neuron assay” value [6] was ~500 nM.

From patent US20180230232A1 (VIB VZW, published 2018)
